Experimental data as given in PMC10352329.

Key:
Test in all cases: ITC
[1] = target: H2B (1–27) unmodified peptide (Homo sapiens); details: domain or fragment; chains chain; fluorescently labeled with a His tag Labeling Kit (microscale thermophoresis only)
[2] = target: H4 (1–20) K5ac/K8ac peptide (Homo sapiens); details: domain or fragment
[3] = target: H4 (1–20) unmodified peptide (Homo sapiens); details: domain or fragment; chains chain; fluorescently labeled with a His tag Labeling Kit (microscale thermophoresis only)

Sequence of H2B (1–27) unmodified peptide (Homo sapiens) (main, as listed by the source): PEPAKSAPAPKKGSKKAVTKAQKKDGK

B1: human p300BRP (residues 1048–1282), wild type, Q09472 1048-1282 (protein)
chain: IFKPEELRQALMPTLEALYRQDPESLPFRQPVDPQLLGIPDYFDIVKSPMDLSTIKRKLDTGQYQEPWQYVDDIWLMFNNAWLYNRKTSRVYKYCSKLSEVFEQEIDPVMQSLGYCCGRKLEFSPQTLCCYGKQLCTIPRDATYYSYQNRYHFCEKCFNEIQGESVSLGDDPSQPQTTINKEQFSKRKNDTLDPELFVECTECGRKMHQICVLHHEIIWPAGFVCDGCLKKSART
[1]
  Kd: > 500 µM
[2]
  Kd: 240 µM
[3]
  Kd: > 500 µM
